According to PMC7506556, “Structure and function of bacteriophage CBA120 ORF211 (TSP2), the determinant of phage specificity towards E. coli O157:H7” (Scientific Reports, 2020):
Numbering of substitutions follows the chain as printed. Numbers in names are those of the source.

B1: E456A:E483A TSP1 (enzyme)
chain: MNEMFSQGGKGSTGILTNKQAVARHFGVKQSEVVYFSVGVDLGGYKVIYDKETQRAYSLPVGIASGTTAVSLSTAAVLVHSAGSVDLGSLAVSREEYVTLPGSFDSGSTLNVKNELLTYTDGKYRWDGILPKTVAPGSTPASTGGVGLGAWISVGDASLRTQLANGDGSLIGIHPQGTLNNVLTVRTPEQYNAVGDGIADDTSKLKEMLSDINNVPETLPDAAAVNSYMEQVAVKIDLTKLYRFTETLYIPPGVSIEIPTSNFFTRECKQGLFYDPVDKNTAAISLMVYRKQPDGSYKLNKDVDYYPTGLDIDNGDAITCARKIDINNLNLITAPGVKVGVKWIGGAGCTTKGLSIGENTGSDITTARLPRVGLLQSASWGSIHENLRILYKTQGAVFIDSNGGAAVNNAYISRLGNTNGELEQAVYKPAGFTEVGDVAVTQFAGSEVKFNSPIIAQASFDFVHAGRDTDSYGLFMVDKPHIASSGGKKKHSFYLINTSSNVTLSGVGLSGQDPDLDSMYFLKNCPETARNVVRGQMPISGVKLVRGTGNYPTLVLDCTNMGSQFQFGEVGDIFYIKDVVGVKADTLYIDPVNGNNYNWGTNGTKPIRELTNIAKICQLFRCKSVYLNAGESVITSNTELPMVVFEGPGSLKANSGSSFLIKAGGTLSLIGLSGISTDGGHMFRVSTVEKVNIHTNCSVNAGAAYVVLSEVQGNIEYRQLFYSVNCSKYIGATAGQTIAGIMVKTATRPTGIDAAPVDGNVSLTYKIIES
notes: source: E. coli BL21(DE3), purified similar to wild type TSPs
B2: E456Q:E483Q TSP1 (enzyme)
chain: B1 chain with A456Q, A483Q
notes: as for B1
B3: D313N:E456Q:E483Q TSP1 (enzyme)
chain: B1 chain with D313N, A456Q, A483Q
notes: as for B1
B4: bacteriophage CBA120 ORF211 (TSP2), wild type (enzyme, UniProt G3M190 1-921, looked up)
chain: MTRNVEELFGGVITAPHQIPFTYKSNVGGETFLSLPFYPVTGVVTINGGMQVPLDNFEIEGNTLNLGRALSKGDVVYCLFDKILSPEDTAKGIRIYKFQAVGGETEFTPDFTSYGVQSLYIGGEYKTPEIEYSYDSTTGKVSLQTALSAGVWVVAEMSVKQPNISPAFDRSIQEIARSANVKDSEVIVSTDTISLLDGKKVVYDIATQTSYGLPTIPDGSVISSVSAGKLNYNPGDVQVDLLPLEDSFINVINTLGRNDGAKYIGECHSVADLRNTEPTMDGQRIILKQHTAGTLLGGGVFRALIDGTGKTDNNGTVIKTVGGAAWLRVNADRVNPFMFGALGGSNDDTIPVQSCVDSGKATQLTDAHYVSNIQLKYNTSSIYGSGLHYSRLHQLPSATGNCITIKDTCSLIVLDAFGVYGTGAQQGTSFTAGTTGIYVETPSGLSADYPFHTTADPRRDLCISKVHIAGFDEYGLNIDSGNFSVTTDSLLVNHINQVGVRCATTDWTWTNIQVNTCGKQCLVLDGCGNGRIIGGKFIWANWQPYGTVGQFPGITINNSQNMVINGIEVQDCGGNGIEISESYSISMNGLNTNRNGINANNTFYNIVFNKSDAVINGFVGLNYAANSGSGANSSAGNFQFLSNDCSVTINGVVETGYMGINFIGDNNIINPTNSDLSINGLVNYSKTGLQTMNETPTFDGVSTTPVYVSVPSSVGQVNGLRLSQANKDKLLYSRTAGPEGITMAAVIVPTISGAEVFNFMAIGSGFSDTSNSLHLQLVIDASGKQTIALLLGGDGTTQILSGDLPNDLKLQSGVPYHIAIGAKPGYFWWSILNIQTGKRIRRSFRGAYLAVPFNSIFGLTSSLTFFSDSNAGGDACSGVGAKVYVGMFSSENDYVASRYYNLINPVDPTKLISYRILDSSI
notes: 921-residue polypeptide chain; gene codon optimized for E. coli; residues 1-168 have no electron density in the crystal; Calculated monomer mass 99,054 Da with the 6X-His tag; also called tailspike protein 2; wild-type TSP2; source: E. coli Rosetta-gami 2 (pBAD24), purified (Ni-NTA); not shown: 6X-His, C-terminal, kept
B5: TSP2 D506N:D571N:Y623A mutant (enzyme, UniProt G3M190 1-921, looked up)
chain: B4 chain with D506N, D571N, Y623A
notes: Made by Q5 site-directed mutagenesis of the TSP2 plasmid; source: E. coli BL21(DE3), purified similar to wild type TSPs

Key:
[1] = biological target: the molecule itself; assay: not stated; purified TSP1 site-directed mutants; how the trimeric state was shown is not told
[2] = biological target: the molecule itself; assay: crystal structure; sitting drops, vapor diffusion, room temperature, 0.8 M ammonium sulfate, 0.1 M HEPES pH 7.0; 1.9 Å; two homotrimers in the asymmetric unit
[3] = biological target: the molecule itself; assay: not stated; purified TSP2 site-directed mutants; how the trimeric state was shown is not told

Row | Protein | stoichiometry N [1] | also measured
1 | B1 | 3 | 
2 | B2 | 3 | 
3 | B3 | 3 | 
4 | B4 |  | stoichiometry N [2]: 3
5 | B5 |  | stoichiometry N [3]: 3
